Publication PMC10286367

B1: mouse full-length p65-HA [mouse] / glycogen synthase kinase 3β (Gsk3β) [mouse (endogenous in hippocampal tissue)] (parent)
chain 1: MDDLFPLIFPSEPAQASGPYVEIIEQPKQRGMRFRYKCEGRSAGSIPGERSTDTTKTHPTIKINGYTGPGTVRISLVTKDPPHRPHPHELVGKDCRDGYYEADLCPDRSIHSFQNLGIQCVKKRDLEQAISQRIQTNNNPFHVPIEEQRGDYDLNAVRLCFQVTVRDPAGRPLLLTPVLSHPIFDNRAPNTAELKICRVNRNSGSCLGGDEIFLLCDKVQKEDIEVYFTGPGWEARGSFSQADVHRQVAIVFRTPPYADPSLQAPVRVSMQLRRPSDRELSEPMEFQYLPDTDDRHRIEEKRKRTYETFKSIMKKSPFNGPTEPRPPTRRIAVPTRNSTSVPKPAPQPYTFPASLSTINFDEFSPMLLPSGQISNQALALAPSSAPVLAQTMVPSSAMVPLAQPPAPAPVLTPGPPQSLSAPVPKSTQAGEGTLSEALLHLQFDADEDLGALLGNSTDPGVFTDLASVDNSEFQQLLNQGVSMSHSTAEPMLMEYPEAITRLVTGSQRPPDPAPTPLGTSGLPNGLSGDEDFSSIADMDFSALLSQISS
chain 2: MSGRPRTTSFAESCKPVQQPSAFGSMKVSRDKDGSKVTTVVATPGQGPDRPQEVSYTDTKVIGNGSFGVVYQAKLCDSGELVAIKKVLQDKRFKNRELQIMRKLDHCNIVRLRYFFYSSGEKKDEVYLNLVLDYVPETVYRVARHYSRAKQTLPVIYVKLYMYQLFRSLAYIHSFGICHRDIKPQNLLLDPDTAVLKLCDFGSAKQLVRGEPNVSYICSRYYRAPELIFGATDYTSSIDVWSAGCVLAELLLGQPIFPGDSGVDQLVEIIKVLGTPTREQIREMNPNYTEFKFPQIKAHPWTKVFRPRTPPEAIALCSRLLEYTPTARLTPLEACAHSFFDELRDPNVKLPNGRDTPALFNFTTQELSSNPPLATILIPPHARIQAAASPPANATAASDTNAGDRGQTNNAASASASNST

What was measured:
[1] = variants of: B1; experiment: co-IP with Gsk3β followed by WB, band quantification; settings: with glycogen synthase kinase 3β (Gsk3β) [mouse (endogenous in hippocampal tissue)]; p65-HA variant co-expressed with Ogt-Flag and Gsk3β; n = 3 independent experiments; parent: 1; read off a plot
[2] = variants of: B1; experiment: co-IP with HA (p65) followed by WB, band quantification; settings: with glycogen synthase kinase 3β (Gsk3β) [mouse (endogenous in hippocampal tissue)]; p65-HA variant co-expressed with Ogt-Flag and Gsk3β; n = 3 independent experiments; parent: 1; read off a plot

Variant	response (relative protein level (HA / Gsk3β)) [1]	response (relative protein level (Gsk3β / HA)) [2]
chain 1 S374A	1.1	1
chain 1 S370A	1	1.1
chain 1 S384A	2.4	2.1
chain 1 S396A	1	1.1
